Test results as given in paper PMC12711028.

Key:
[1] = target: Ss-DAF-2B, isoform B of the insulin receptor homolog Ss-DAF-2 of Strongyloides stercoralis (Strongyloides stercoralis)
[2] = target: Ss-DAF-2B, isoform B of the insulin receptor homolog Ss-DAF-2 of Strongyloides stercoralis (Strongyloides stercoralis); remark: listed apart in the source

bovine insulin (ligand)
feeding rate of S. stercoralis iL3 with bovine insulin; endogenous Ss-DAF-2, isoforms not told apart [1]: 38.2%
Ss-daf-2 transcript level in iL3 treated with bovine insulin, fold change against control (RT-PCR); no significant effect [2]: 1 fold

human insulin (Hs-INS) (from UniProt P01308 1-110) (ligand)
feeding rate of S. stercoralis iL3 with human insulin compared with porcine and bovine insulin at equivalent concentrations; endogenous Ss-DAF-2, isoforms not told apart [1]: 72.2%
Ss-daf-2 transcript level in iL3 treated with human insulin, fold change against control (RT-PCR) [2]: 2.6 fold

porcine insulin (ligand)
feeding rate of S. stercoralis iL3 with porcine insulin; endogenous Ss-DAF-2, isoforms not told apart [1]: 0.7%
Ss-daf-2 transcript level in iL3 treated with porcine insulin, fold change against control (RT-PCR); no significant effect [2]: 0.9 fold
